Experimental data reported in US12559743, “Engineered guide scaffolds” (Scribe Therapeutics Inc.).

Biological target: T1, CasX 491 (engineered CasX)
T1 chain: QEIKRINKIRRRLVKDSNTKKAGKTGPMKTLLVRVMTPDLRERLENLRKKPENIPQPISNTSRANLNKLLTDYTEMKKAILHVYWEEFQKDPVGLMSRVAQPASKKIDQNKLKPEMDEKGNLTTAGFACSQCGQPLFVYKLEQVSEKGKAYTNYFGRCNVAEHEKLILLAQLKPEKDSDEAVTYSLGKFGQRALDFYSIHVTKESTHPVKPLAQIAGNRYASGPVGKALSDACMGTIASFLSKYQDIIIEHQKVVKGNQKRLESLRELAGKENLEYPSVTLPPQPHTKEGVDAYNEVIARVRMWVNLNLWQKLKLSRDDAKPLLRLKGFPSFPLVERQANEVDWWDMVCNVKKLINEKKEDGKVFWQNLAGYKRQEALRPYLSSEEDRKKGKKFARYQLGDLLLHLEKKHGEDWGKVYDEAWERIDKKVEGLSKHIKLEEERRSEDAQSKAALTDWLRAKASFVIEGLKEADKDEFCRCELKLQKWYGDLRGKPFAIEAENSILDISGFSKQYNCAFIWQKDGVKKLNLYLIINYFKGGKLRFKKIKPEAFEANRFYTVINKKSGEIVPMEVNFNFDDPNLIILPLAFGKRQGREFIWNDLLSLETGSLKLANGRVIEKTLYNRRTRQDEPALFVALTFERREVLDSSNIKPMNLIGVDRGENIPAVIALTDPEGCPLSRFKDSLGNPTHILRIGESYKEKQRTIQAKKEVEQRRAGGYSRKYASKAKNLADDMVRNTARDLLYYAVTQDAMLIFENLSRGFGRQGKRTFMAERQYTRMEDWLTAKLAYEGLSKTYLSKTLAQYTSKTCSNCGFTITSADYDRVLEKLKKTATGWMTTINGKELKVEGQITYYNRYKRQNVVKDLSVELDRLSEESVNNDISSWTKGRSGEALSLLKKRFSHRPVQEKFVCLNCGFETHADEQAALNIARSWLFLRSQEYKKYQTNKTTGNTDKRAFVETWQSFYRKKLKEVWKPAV
Experiment: cell_activity; high dose; about 25% greater at low dose; PAM not stated for this spacer
Experimental: Cells were nucleofected with the indicated doses of p59 plasmids encoding CasX 491, the scaffold, and spacer 11.30 (5' […] 3', SEQ ID NO: 17) targeting mRHO. […] Cells were nucleofected with the indicated doses of p59 plasmids encoding CasX 491, the scaffold, and spacer 12.7 (5' […]-GUUU 3', SEQ ID NO: 1146) targeting repeat elements preventing expression of the tdTomato fluorescent protein. Editing was assessed 5 days post-transfection by FACS, to quantify the fraction of tdTomato positive cells.

B1: sgRNA scaffold 235 + spacer 12.7 ; tdTomato locus target (spacer 12.7 protospacer) (ssRNA ; dsDNA)
RNA: ACUGGCGCUUCUAUCUGAUUACUCUGAGCGCCAUCACCAGCGACUAUGUCGUAGUGGGUAAAGCCGCUUACGGACUUCGGUCCGUAAGAGGCAUCAGAGCUGCAUUCUAGUUGUGGUUU
DNA 1: CTGCATTCTAGTTGTGGTTT
DNA 2: AAACCACAACTAGAATGCAG
With B1 as the binder, how does the activity read?
Its activity is ~35 % greater than scaffold 174.
